Data reported in the supplement of paper PMC7125110.
± gives the standard error. Fewer inactive variants are shown than the library holds.

B1: glmS ribozyme (parent)
chain: AUAAAAGCGCCAGAACUACAGAAAUGUAGUUGACGAGGAGGAGGUUUAUCGAAUUUUCGGCGGAUGCCUCCAAA

Variants of: B1
Assay: self-cleavage kobs at 10000 uM GlcN6P; higher = faster cleavage; RNA array
Settings: with glucosamine-6-phosphate
Summary of the method: (§1)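 Glucosamine-6-phosphate, from 40 μM to 10 mM in HEPES/KCl/Mg(OAc)2 buffer, was flowed over sequenced MiSeq chips carrying barcoded ribozyme variants transcribed in situ by E. coli RNA polymerase. A hybridised Cy3 probe tracked the variants at 37 °C as tiles were imaged over ~14 h. kobs, kcat and KM were obtained by fitting normalised per-tile medians to exponential decays and then applying weighted Michaelis–Menten fits across concentrations.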

Variant	self-cleavage kobs at 10000 uM GlcN6P
G40A G51C C67U	< 1e-05 s⁻¹
A15C A39G A52G	0.000495 ± 8.8e-05 s⁻¹
G29A G66U C68U	3.63e-05 ± 1.6e-05 s⁻¹
C16G G29A G32A	0.00144 ± 0.00032 s⁻¹
G38C G43C G59C	< 1e-05 s⁻¹
C8A A15U U47C U69A	< 1e-05 s⁻¹
C8G A33U U56A	< 1e-05 s⁻¹
G41C G66C C68A	< 1e-05 s⁻¹
A6C G29A C34U G43U G44U	< 1e-05 s⁻¹
C8G G9C G13U G37U A64G	< 1e-05 s⁻¹
A15U A42U C67A	0.000127 ± 3.2e-05 s⁻¹
G9A A53C G62A C70G	< 1e-05 s⁻¹
G40A A53G C71G	0.00453 ± 0.001 s⁻¹
C8U G32A A48U A53U U55A	< 1e-05 s⁻¹
G13A U57G	4.69e-05 ± 8.8e-06 s⁻¹
G41C U56A G59C	< 1e-05 s⁻¹
C16U U30G G59C	< 1e-05 s⁻¹
G35C C67U	0.00429 s⁻¹
C11U C50G C70G	3.88e-05 ± 1.4e-05 s⁻¹
A36U G40A G63U	< 1e-05 s⁻¹
G44C U45A U46G	3.99e-05 ± 2e-05 s⁻¹
A33C G62C C70U	< 1e-05 s⁻¹

Variant	self-cleavage kobs at 10000 uM GlcN6P
G29U G38C G44A U47C	< 1e-05 s⁻¹
A15G C16U G29C	0.00377 ± 0.00075 s⁻¹
A23C C68A	5.82e-05 ± 2.4e-05 s⁻¹
C16U U54A C70G	0.000121 ± 2.5e-05 s⁻¹
G13A C58U	8.94e-05 ± 8.9e-06 s⁻¹
C11G U31G G35U A36U U49C A52U	< 1e-05 s⁻¹
G9C G43C C67U	< 1e-05 s⁻¹
C16U G29U G40U C50U	< 1e-05 s⁻¹
G37A G41U G59C G66U	< 1e-05 s⁻¹
G26U A53G U69G	5.41e-05 ± 1.5e-05 s⁻¹
G38A G44U A53G	< 1e-05 s⁻¹
C16G G38C G40C U45A A52G	< 1e-05 s⁻¹
C8A G29C U46A	< 1e-05 s⁻¹
G32A U57C G62A C67G	< 1e-05 s⁻¹
G7C C68A C71A	< 1e-05 s⁻¹
A33C G51A A64U	< 1e-05 s⁻¹
G29U G32A A39U	0.00055 ± 8.7e-05 s⁻¹
A39G A52C	2.99e-05 ± 1.2e-05 s⁻¹
A36U G43U G63C	< 1e-05 s⁻¹
G13C A14G U69G	3.8e-05 ± 1.6e-05 s⁻¹
G26U U30G C71U	0.000403 ± 6.4e-05 s⁻¹
G7U U47A U57G	< 1e-05 s⁻¹

Variant	self-cleavage kobs at 10000 uM GlcN6P
A14G A15U G32A	0.00264 ± 0.00069 s⁻¹
U47G A48U U56G C68A	4.62e-05 ± 1.6e-05 s⁻¹
G13A U57G C70U	3.53e-05 ± 1.7e-05 s⁻¹
A14U G35A A48G U54C C70G	< 1e-05 s⁻¹
A12C C61U G66U	< 1e-05 s⁻¹
A36C A39U U55A	< 1e-05 s⁻¹
A14C A52U A53C	< 1e-05 s⁻¹
G9U A14C A36C U46A	< 1e-05 s⁻¹
G41A G66A C68U	3.05e-05 ± 1.3e-05 s⁻¹
G7A C10G C19A U47A G51A	< 1e-05 s⁻¹
G35C A39U G41C C61A	< 1e-05 s⁻¹
A12U G13U U31C G40A G44A U56A	< 1e-05 s⁻¹
C67A C68U C70U	6.71e-05 ± 1.9e-05 s⁻¹
A14C G40A U47C	0.000375 ± 7e-05 s⁻¹
U31G U55G U69G	6.94e-05 ± 1.1e-05 s⁻¹
G37A G38A A42C G59U	< 1e-05 s⁻¹
C11A U30G C67A	9.25e-05 ± 1.7e-05 s⁻¹
A14U A15G G41U	0.000237 ± 5.3e-05 s⁻¹
C11U U31C U56C	9.92e-05 ± 2.1e-05 s⁻¹
U30C G32A C70G	7.6e-05 ± 1.7e-05 s⁻¹

Variants of: B1
Assay: self-cleavage kobs at 2500 uM GlcN6P; higher = faster cleavage; RNA array
Settings: with glucosamine-6-phosphate
Summary of the method: as §1

Variant	self-cleavage kobs at 2500 uM GlcN6P
A48G C50G A52U	< 1e-05 s⁻¹
C50A U65G C67A	8.64e-05 ± 2.2e-05 s⁻¹
A53U U54C U55A A64G	0.00369 ± 0.00074 s⁻¹
U47A A48C G51U	< 1e-05 s⁻¹
U46G U54C C58G U65A	< 1e-05 s⁻¹
G44U U46G C67A	0.00376 ± 0.00093 s⁻¹
G44A G66U C67G	0.00142 ± 0.00035 s⁻¹
U57A G59U G66U	< 1e-05 s⁻¹
U46A U56G C58U G59U	< 1e-05 s⁻¹
U56C A64U U65C	< 1e-05 s⁻¹
G63C A64C C67A	< 1e-05 s⁻¹
G43U U47G G59C	< 1e-05 s⁻¹
A53U U56A C68U	0.000647 ± 0.00019 s⁻¹
U47G A48U U56G C68A	0.000324 ± 0.00012 s⁻¹
G43A C50G U69G	< 1e-05 s⁻¹
C50U C58A C70G	7.55e-05 ± 2.9e-05 s⁻¹
U45G G60A C67G C68U	< 1e-05 s⁻¹
U45G U56A C71U	0.000974 ± 0.00025 s⁻¹
G59U G62C C71A	< 1e-05 s⁻¹
C67A C68U C70U	2.78e-05 ± 1.3e-05 s⁻¹
U56C C67A C71G	< 1e-05 s⁻¹
